Source: patent US12415847B2, “ApoM-Fc fusion proteins for treating lung diseases” (Children's Medical Center Corporation, priority 2018, dated 2025)

Key:
S1P1 receptor [1] = molecular target: T1, S1P1 receptor (Homo sapiens, UniProt P21453); assay: Nanobit split luciferase assay, beta-arrestin coupling; assay type: cell-based; details: transfected 293A cells; 1000 nM-0.3 nM S1P
T1 construct: expressed in transfected cells; host or cells: Human 293A cells, transient PEI transfection
Procedure: (§1) FIGS. 5A-5B. Nanobit analysis of Human ApoMFc-S1P, Mouse ApoMFc-S1P, or BSA-S1P (Positive Control). […] BSA-S1P is the well-established activator of the S1PR1 and it was tested whether Human ApoMFc-S1P, Mouse ApoMFc-S1P gave equivalent induction of receptor activation. Data are the means of triplicate wells with the baseline (pre-stimulation) signal subtracted from the final luciferase signal and graphs are expressed with standard deviation.
(§2) The S1P receptors are members of the G-protein coupled receptor (GPCR) superfamily. Receptor activation is characterized by immediate activation of a G-protein complex (alpha-beta-gamma) that activates multiple intracellular signaling pathways and then secondary activation of coupling to the protein beta-arrestin, which may cause receptor internalization and desensitization as well as activation of other intracellular signaling pathways. […]
(§3) There are two general forms of this assay. […] Upon activation of the GPCR, the G-Protein alpha-beta-gamma complex […] and Luciferase activity may be detected by measuring emitted light in the presence of luciferase substrate (luciferin). […] It is notable that G-Protein assay results in decreased relative fluorescence with increased receptor activation, while the Beta-arrestin coupling assay results in increased relative fluorescence with increased receptor activation. […]
Target sequence in this assay (P21453 whole entry): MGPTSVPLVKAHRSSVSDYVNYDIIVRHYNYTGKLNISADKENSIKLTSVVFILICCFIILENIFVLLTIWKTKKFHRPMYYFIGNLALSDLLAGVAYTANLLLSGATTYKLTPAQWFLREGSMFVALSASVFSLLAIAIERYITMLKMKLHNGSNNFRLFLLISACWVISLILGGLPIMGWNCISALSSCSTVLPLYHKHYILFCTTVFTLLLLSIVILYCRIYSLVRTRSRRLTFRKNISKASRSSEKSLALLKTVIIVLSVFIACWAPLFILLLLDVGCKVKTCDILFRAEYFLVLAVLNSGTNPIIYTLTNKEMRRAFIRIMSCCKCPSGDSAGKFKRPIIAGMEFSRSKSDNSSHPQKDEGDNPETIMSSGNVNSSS
Target sequence in this assay (P49407 whole entry partner): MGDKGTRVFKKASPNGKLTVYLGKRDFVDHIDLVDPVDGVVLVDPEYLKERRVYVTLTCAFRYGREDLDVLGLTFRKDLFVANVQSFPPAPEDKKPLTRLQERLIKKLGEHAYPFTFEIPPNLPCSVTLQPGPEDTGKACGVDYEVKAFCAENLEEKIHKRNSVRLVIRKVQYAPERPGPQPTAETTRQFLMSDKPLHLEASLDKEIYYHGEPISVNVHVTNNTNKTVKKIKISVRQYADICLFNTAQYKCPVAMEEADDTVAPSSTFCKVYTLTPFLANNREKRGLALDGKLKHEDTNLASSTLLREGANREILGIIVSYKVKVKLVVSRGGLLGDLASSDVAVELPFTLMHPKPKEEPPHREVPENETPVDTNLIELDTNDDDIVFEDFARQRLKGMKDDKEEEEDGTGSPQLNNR

S1P1 receptor [2] = molecular target: T1, S1P1 receptor; assay: Nanobit split luciferase assay, Gi-alpha coupling; assay type: cell-based; details: transfected 293A cells; 1000 nM-0.3 nM S1P
Procedure: as §1, §2, §3
Target sequence in this assay (P21453 whole entry): as the sequence (P21453 whole entry) above

HUVECs = assay: Trans-endothelial electrical resistance (TEER); assay type: cell-based, human; details: 4 μg/well, 250 nM S1P, 6 hour time point
Procedure: FIG. 4. Human and Mouse ApoM-Fc-S1P enhanced endothelial Barrier Protection. Human ApoMFc-S1P (4 μg/well, 250 nM S1P), Mouse ApoMFc-S1P (4 μg/well, 250 nM S1P), or BSA-S1P (250 nM S1P; Positive Control) were analyzed using transepithelial/transendothelial electrical resistance (TEER). The results of TEER analysis of HUVECs at the 6 hour time point are shown. BSA-S1P is the well-established activator of the S1PR1 and it was tested whether Human ApoMFc-S1P, Mouse ApoMFc-S1P gave equivalent induction of receptor activation. All results are normalized to individual well baselines (baseline=1), expressed as the mean of triplicate wells, and Standard Deviation (S.D.) is expressed as gray vertical bars over the course of the data set. […]
0.1 ml of Human Umbilical Vascular Endothelial Cells (HUVECS; 200,000 cells/ml in EGM-2 culture medium, Lonza) were seeded into a 96 well electrical conductance chamber (ECIS Cultureware; Applied Biophysics, Inc) pre-coated with 1% Fibronectin resuspended in Saline. After overnight incubation at 37° C./5% CO2, the 96-well plate was placed on the ECIS reader (Applied Biophysics; Ztheta 96-well array station) and baseline resistance was established which represents the quality of Endothelial junction strength or Endothelial barrier function. […]

For “Human ApoMFc-S1P: Human ApoM-Human IgG1 Fc (hApoM-Fc) loaded with S1P”, the “activation of beta-arrestin coupling to the S1P1 receptor” value (S1P1 receptor [1]) was “equivalently activates”, the “activation of Gi-alpha coupling to the S1P1 receptor” value (S1P1 receptor [2]) was “equivalently activates” and the “endothelial barrier protection (TEER)” value (HUVECs) was “enhance endothelial Barrier Protection”.
